Laboratory results reported in patent US7732592B2, “ALK protein tyrosine kinase, cells and methods embodying and using same” (New York University, priority 2003, dated 2010).

Assays:
MEF-NPM-ALK cells = assay: Morphology of MEF-NPM-ALK cells after infection; type: cell-based
Excerpt: Since NPM-ALK expression in MEF cells leads to relevant morphological changes including cell elongation, bipolarized formations and loose plate attachment, the effect of inhibition of NPM-ALK expression on the phenotype of these cells was then studied. […] Furthermore, highly enriched GFP^+, puromycin resistant pSRG-A5MEF-NPM-ALK cells injected into athymic Nu/Nu mice (1×10^6 cells) grew poorly compared to control infected cells (FIG. 9 D).

ALK receptor (ALK-R) = assay: Co-transfection of pSUPER shRNA vectors with Pallino ALK-R in HEK-293T cells, Western blot; type: cell-based; details: transfected HEK-293T cells
Method: (§1) FIG. 8. Selection of anti-ALK shRNA. […] HEK-293T were co-transfected with Pallino NPM-ALK (2 μg) and one of six different pSUPER vectors carrying shRNA specific for ALK sequences (pS-A1-6)(8 μg). Cells were lysed 72 hours post-transfection and immunoblotted with the indicated antibodies. −=no transfection; A pSUPER-shRNA carrying a p53 specific sequence was used a unrelated control. (pS-p53) (B) ALK5 (A5) inhibits ATIC-ALK protein expression. HEK-293T were co-transfected with Pallino ATIC-ALK and pSUPER-ALK shRNA interfering sequences as above. Expression of ATIC-ALK protein was determined by Western blot analysis as described above. (C) ALK5 (A5) inhibits ALK receptor (ALK-R) protein expression. HEK-293T cells were co-transfected with Pallino ALK-R and pSUPER-ALK shRNA interfering sequences as above.
(§2) Transfections of HEK-293T, GP-293, and MEF Tet-Off cells were performed with Effectene reagent (Qiagen, Valencia, Calif., USA), according to the manufacturer's instructions.
(§3) For Western Blot analysis, cells were lysed (50 mM Tris-HCl, pH 7.4, 150 mM NaCl, 0.1% Triton X-100, 5 mM EDTA, 1 mM Na3VO4, and 1 mM phenylmethyl sulfonyl fluoride and protease inhibitors). Total protein lysates (20 μg) were electrophoresed in SDS-PAGE gel and transferred onto nitrocellulose membranes. […]

ATIC-ALK = assay: Co-transfection of pSUPER shRNA vectors with Pallino ATIC-ALK in HEK-293T cells, Western blot; type: cell-based; details: transfected HEK-293T cells
Method: as §1, §2, §3

NPM-ALK [1] = assay: NPM-ALK protein expression in MEF NPM-ALK Tet-Off cells after retroviral infection, Western blot; type: cell-based
Method: FIG. 9. Anti-ALK siRNA inhibits NPM-ALK-mediated transformation of MEF cells. (A) Suppression of NPM-ALK expression leads to down-regulation of known downstream targets of ALK. MEF NPM-ALK Tet-Off cells were infected with pSRG-A5 virus, transduction efficiency was assessed 72 hours post-infection by FACS analysis of GFP (40%). pSRG-A5-infected cells were further enriched by selection with 1 mg/ml puromycin for 1 week (90%). NPM-ALK expression was inhibited by doxycyclin withdrawn. Protein expression was evaluated culturing (72 hr) semi-confluent cells in absence of doxycyclin. (B) shRNA A-5 expression leads to G0/G1 cell cycle arrest. DNA content analysis was performed in cells grown to confluence and kept in 0.2% serum medium for 72 hours in presence of absence of doxycyclin. Cells were then listed and analysed by Western blotting with indicated antibodies. […] Tumor growth was monitored weekly for 4 weeks. […]
Retroviral supernatants were produced by co-transfection of GP-293 packaging cells with pSRGAx and pVSV-G (Clontech, Palo Alto, Calif., USA); virus-containing supernatants were collected at 48, 72 and 90 hours, filtrated and concentrated by centrifugation. […] Transfection and infection efficiencies were calculated using the percentage of GFP positive cells, identified using fluorescence microscopy (Leica IM RE2) or flow cytometry (FACSCalibur, BD Biosciences, San Josè, Calif., USA). […]

TS cells = assay: Cell death of sorted GFP-positive TS cells by microscopy; type: cell-based, human; details: sorted TS cells (>95% GFP), 24 hr after cell sorting
Method: FIG. 11. Anti-ALK siRNA inhibits growth and induces cell death in TS cells. ShRNA A5 leads ALK+ ALCL cells to cell death. Human TS cells were transduced with pSRG or pSRG-A5 constructs, and […], GFP-positive cells were sorted using MoFo sorter. (A) Highly enriched GFP+ cells (>95%) were evaluated (24 hours after sorting) using a light or fluorescent inverted microscope, (bright field: left panels). 5×10^3/well cells were plated (96-well plate) and the percentage of alive cells was calculated overtime (B). Total number of live cells was also calculated at day 3, 4 and 6 after sorting (C).
To study whether ALK siRNA could promote cell death, highly enriched A5-GFP-positive TS cells by cell sorting (>95% GFP) were evaluated by microscopy. […] These findings were confirmed with enumeration of viable cells by trypan blue exclusion (FIG. 11B) and proliferating cell quantitation using total cell counts (FIG. 11C).

NPM-ALK [2] = assay: Co-transfection of pSUPER shRNA vectors with Pallino-NPM-ALK in HEK-293T cells, Western blot; type: cell-based; details: HEK-293T co-transfected with Pallino-NPM-ALK; after 48 hrs from transfection
Method: as §1, with “Cells were lysed 72 hours post-transfection and immunoblotted with the indicated antibodies. −=no transfection; A pSUPER-shRNA carrying a p53 specific sequence was used a unrelated control.” left out
as §2
as §3, with “membranes. The filters were first blocked (5% low fat milk in PBS with 0.1% Tween 20; 1 h at RT), and then incubated with the primary antibodies for 1 hour at room temperature.” for “membranes.”

B1: A5: short hairpin oligonucleotide against cytoplasmic domain of ALK, SEQ ID NO: 5; in pSUPER vector (nucleic acid)
chain: GATCCCCGGGCGAGCTACTATAGAAATTCAAGAGATTTCTATAGTAGCTCGCCCTTTTTGGAAA
MEF-NPM-ALK cells
  cellular morphology (transformed phenotype): regained their normal pre-transformed cellular features
ALK receptor (ALK-R)
  expression of ALK receptor: successfully abrogate expression
ATIC-ALK
  expression of ATIC-ALK: successfully abrogate expression
NPM-ALK [1]; MEF NPM-ALK Tet-Off after doxycyclin withdrawal, proportional to percentage of GFP positive cells
  NPM-ALK protein expression: significant down-regulation
NPM-ALK [1]; MEF-NPM-ALK cells
  NPM-ALK level in MEF-NPM-ALK cells after infection: very low levels
TS cells
  cells with shrunken, picnotic nuclei lacking detectable GFP expression: > 50%
NPM-ALK [2]
  down-regulation of the protein level of NPM-ALK: > 90%
